Test results as given in patent US20240181074A1, “PEGYLATED T CELL ENGAGER WITH DUAL SPECIFICITIES TO CD3 AND CD19” (Shenzhen Enduring Biotech, Ltd., priority 2021, published 2024).

How the values were obtained:
human CD3E&3D = target: T1, human CD3E&3D (Homo sapiens, UniProt P07766); assay: BiaCore assay, binding to human CD3E&3D; conditions: ligand human CD3E&3D captured on chip
T1 construct: purchased AcroBiosystems CDD-H52W0
Description: (§1) The anti-CD3 scFv (SCACD3) has the amino acid sequence set forth in SEQ ID NO: 2. The anti-CD19 scFv (SCACD19) has the amino acid sequence set forth in SEQ ID NO: 1. Methods for preparation of theses samples were described in detail in WO 2018/075308 A1.
(§2) General procedure: Diluted human CD19 (AcroBiosystems, Cat. CD19-H5259) or human CD3E&3D (AcroBiosystems, Cat. CDD-H52W0) were captured on the sensor chip through Fc capture method. The capture time for human CD3E & CD3D and for human CD19 was set for 12 s and 12-30 s respectively and capture flow rate was […]. Each sample tested was serially diluted into 6-8 concentrations. The association time and dissociation time for the analytes were set for 180 s and 420 s respectively, and the flow rate for the analyte was set at […]. For surface regeneration, 10 mM Glycine-HCl buffer was used; the contact time was set for 30 s and the flow rate was […]. Flow cell 1 and blank injection of buffer in each cycle were used as double references for Response Units subtraction. All data were processed using BiaCore T2000 Evaluation software (version 3.1).

human CD19 [1] = target: T2, human CD19 (Homo sapiens, UniProt P15391); assay: BiaCore assay, binding to human CD19; conditions: ligand human CD19 captured on chip
T2 sequence (P15391 20-291 limits assumed): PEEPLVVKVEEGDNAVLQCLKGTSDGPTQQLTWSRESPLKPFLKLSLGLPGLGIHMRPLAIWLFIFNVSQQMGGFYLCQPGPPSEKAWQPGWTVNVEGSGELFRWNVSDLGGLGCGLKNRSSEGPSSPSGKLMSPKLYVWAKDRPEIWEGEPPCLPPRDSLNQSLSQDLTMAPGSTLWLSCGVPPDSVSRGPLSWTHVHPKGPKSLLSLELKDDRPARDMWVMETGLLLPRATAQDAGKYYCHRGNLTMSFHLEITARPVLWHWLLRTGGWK
Description: as §1, §2

human CD3E&CD3D protein = target: T3, human CD3E&CD3D protein (Homo sapiens, UniProt P07766); assay: ELISA assay, binding to human CD3E&CD3D protein; conditions: coating concentration of 1 μg/ml, OD450
T3 construct: purchased AcroBiosystems CDD-H52W0
Description: (§3) Plates were coated with SCACD3, CD3-PEG and JY108 respectively at 100 μl/well. […] After coating, each plate was washed for 3 times with PBST (200 μL/well). Next, each plate was blocked with 5% BSA in PBST at 37° C. for 2 hours. After blocking, each plate was washed with PBST for 3 times followed by the addition of either […], 0.1 μg, and 0 μg human CD19-Fc protein (Acrobiosystems, Code: CD9-H5259) in 0.5% BSA in PBST (10 μg/mL, 1 μg/mL, 0 μg/mL, 100 μL/well) or […] human CD3E&CD3D (Acrobiosytems, Code: CDD-H52W0) in 0.5% BSA in PBST (10 μg/mL, 100 μl/well) to corresponding wells. The plates were incubated at 37° C. for 1 hour followed by washing with PBST for 3 times. 100 μL of […] HRP conjugated anti-human IgG (GenScript, Code: A01854) was then added to each well. The plates were incubated at 37° C. for 1.5 hours. After incubation, each plate was washed with PBST for 3 times followed by the addition of 100 μL of TMB to each well. The development reaction for each plate was set in dark for 15 minutes and terminated with 100 μL/per well of stop solution.

human CD19 [2] = target: T2, human CD19; assay: ELISA assay, binding to human CD19 protein; conditions: OD450
Description: as §3

[3] = human, in vivo; cited from earlier work
[4] = in vivo; cited from earlier work
patients = conditions: human, in vivo; cited from earlier work
MS patients = conditions: at 48 weeks; cited from earlier work

T1 sequence (P07766 23-126 limits assumed): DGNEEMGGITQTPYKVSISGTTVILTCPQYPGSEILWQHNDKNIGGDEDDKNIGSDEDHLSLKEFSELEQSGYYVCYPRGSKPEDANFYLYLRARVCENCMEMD
T1 sequence (P04234 22-105 partner limits assumed): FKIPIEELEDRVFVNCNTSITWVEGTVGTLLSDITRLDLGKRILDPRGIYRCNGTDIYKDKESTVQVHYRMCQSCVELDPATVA
T3 sequence (P07766 23-126 limits assumed): as the sequence (P07766 23-126 limits assumed) above
T3 sequence (P04234 22-105 partner limits assumed): as the sequence (P04234 22-105 partner limits assumed) above

Kd (human CD3E&3D) [nM]	ka (human CD3E&3D) [M⁻¹ s⁻¹]	kd (human CD3E&3D) [s⁻¹]	Kd (human CD19 [1]) [nM]	ka (human CD19 [1]) [M⁻¹ s⁻¹]	kd (human CD19 [1]) [s⁻¹]	Kd (human CD19 [1]; listed as blinatumomab) [nM]	ranking of affinity to human CD3E&CD3D (human CD3E&CD3D protein)	Substance	ranking of binding to human CD19 (human CD19 [2])	circulation half-life [3] [h]	half-life [4]	toxicity in patients (patients)	MS patients experiencing relapse of the disease (MS patients) [%]
1.14	1.08e+06	0.00123	0.207	1.92e+06	0.000397	0.207	SCACD3>blinatumomab>JY108>SCACD3-PEG	Blinatumomab: T-BsAb or BiTE (Bispecific T cell Engager) approved for ALL, redirecting T cells to CD19+ B cells; control drug	SCACD19>blinatumomab>JY108>SCACD19-linker	1.25	about 2 h	frequent cytokine release syndrome (CRS) and central nerve system (CNS) toxicity	
								rituximab: anti-CD20 antibody					~20
